This is an account of results in US20140093496A1 (Chugai, published 2014).

As usually defined, the Kd is the free concentration of one partner at which half of the binding sites on the other are occupied at equilibrium, for simple one-to-one binding.

The target in assay [1] is T1, FcγRIa extracellular domain with C-terminal His tag (human, UniProt P12314 16-292).
T1 construct: also called FcgRIa
The experiment in a line: SPR (Biacore). The text has this: (§1) IL6R-L was utilized as the common antibody L chain for all of the antibodies, the antibodies were expressed and purified according to the method of Reference Example 1, and binding to each of the FcγRs (FcγRIa, FcγRIIa H type, FcγRIIa R type, FcγRIIb, and FcγRIIIa V type) was comprehensively evaluated by the method of Reference Example 2.
(§2) Furthermore, KD(IIaR)/KD(IIb) and KD(IIaH)/KD(IIb) in the table respectively represent the value obtained by dividing the KD value of each variant for FcγRIIaR by the KD value of each variant for FcγRIIb, and the value obtained by dividing the KD value of each variant for FcγRIIaH by the KD value of each variant for FcγRIIb. KD(IIb) of the parent polypeptide/KD(IIb) of the altered polypeptide refers to the value obtained by dividing the KD value of the parent polypeptide for FcγRIIb by the KD value of each variant for FcγRIIb.
For orientation: In SPR one partner is held on a chip, and binding of the other changes the refractive index at the surface.

Assay [2] concerns the target T2, FcγRIIb extracellular domain with C-terminal His tag (human, UniProt P31994 43-217).
T2 construct: extracellular domain; also called FcgRIIb
T2 sequence (looked up): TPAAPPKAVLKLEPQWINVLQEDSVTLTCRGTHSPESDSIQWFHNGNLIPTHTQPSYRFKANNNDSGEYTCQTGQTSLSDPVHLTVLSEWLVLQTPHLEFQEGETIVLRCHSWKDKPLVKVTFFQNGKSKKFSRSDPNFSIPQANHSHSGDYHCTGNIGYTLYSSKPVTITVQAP
The experiment in a line: SPR (Biacore).
Source text: as §1, §2

In assay [3] the target is T3, FcγRIIIa type V extracellular domain, C-terminal His tag (human, UniProt P08637 17-208).
T3 construct: extracellular domain; also called FcgRIIIaV; FcγRIIIaV; not shown: His tag at the C terminus
T3 sequence (P08637 17-208 F176V): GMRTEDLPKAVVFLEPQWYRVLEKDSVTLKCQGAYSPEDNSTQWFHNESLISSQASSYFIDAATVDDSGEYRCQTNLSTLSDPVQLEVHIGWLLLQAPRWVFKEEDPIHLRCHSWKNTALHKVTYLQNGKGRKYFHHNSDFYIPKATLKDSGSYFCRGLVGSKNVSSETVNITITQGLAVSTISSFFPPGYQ
Put plainly: SPR (Biacore), antibody captured on chip, FcγR extracellular domain as analyte; 1:1 kinetic fit or Equation 2 for weak binding.
Source text: as §1, §2

Assay [4] has as its target T4, FcγRIIa type R extracellular domain with C-terminal His tag (human, UniProt P12318 34-217).
T4 construct: extracellular domain; also called FcgRIIaR; FcγRIIaR
T4 sequence (looked up): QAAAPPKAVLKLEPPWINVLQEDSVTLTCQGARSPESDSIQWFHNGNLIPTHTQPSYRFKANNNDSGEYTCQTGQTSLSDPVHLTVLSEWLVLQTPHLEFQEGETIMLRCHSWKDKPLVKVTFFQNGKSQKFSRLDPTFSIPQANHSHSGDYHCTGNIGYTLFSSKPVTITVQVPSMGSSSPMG
Put plainly: SPR (Biacore).
Source text: as §1, §2

T1 sequence (P12314 16-292): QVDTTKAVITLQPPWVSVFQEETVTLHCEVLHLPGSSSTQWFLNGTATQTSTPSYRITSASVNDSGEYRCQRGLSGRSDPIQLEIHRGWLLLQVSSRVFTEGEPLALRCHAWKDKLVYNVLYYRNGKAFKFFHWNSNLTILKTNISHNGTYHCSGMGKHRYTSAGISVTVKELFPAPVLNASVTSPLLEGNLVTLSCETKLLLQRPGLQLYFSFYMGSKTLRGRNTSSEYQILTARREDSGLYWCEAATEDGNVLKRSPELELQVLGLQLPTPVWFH

B1: IL6R-2B261/IL6R-L (antibody, human IgG1, kappa)
heavy: QVQLQESGPGLVKPSETLSLTCAVSGHSISHDHAWSWVRQPPGEGLEWIGFISYSGITNYNPSLQGRVTISRDNSKNTLYLQMNSLRAEDTAVYYCARSLARTTAMDYWGEGTLVTVSSASTKGPSVFPLAPSSKSTSGGTAALGCLVKDYFPEPVTVSWNSGALTSGVHTFPAVLQSSGLYSLSSVVTVPSSSLGTQTYICNVNHKPSNTKVDKKVEPKSCDKTHTCPPCPAPDLLGGDSVFLFPPKPKDTLMISRTPEVTCVVVDVSHEDPEVKFNWYVDGVEVHNAKTKPREEQDNSTYRVVSVLTVLHQDWLNGKEYKCKVSNKALPAPIEKTISKAKGQPREPQVYTLPPSRDELTKNQVSLTCLVKGFYPSDIAVEWESNGQPENNYKTTPPVLDSDGSFFLYSKLTVDKSRWQQGNVFSCSVMHEALHNHYTQESLSLSP
light: not shown
notes: E233D/P238D/Y296D (EU) in IL6R-B3; copies: 2 + 2
Regarding B1, the Kd stood at 9 nM in assay [1] and 1000 nM in assay [2].

B2: IL6R-BP209/IL6R-L (antibody, human IgG1, kappa)
heavy: QVQLQESGPGLVKPSETLSLTCAVSGHSISHDHAWSWVRQPPGEGLEWIGFISYSGITNYNPSLQGRVTISRDNSKNTLYLQMNSLRAEDTAVYYCARSLARTTAMDYWGEGTLVTVSSASTKGPSVFPLAPSSKSTSGGTAALGCLVKDYFPEPVTVSWNSGALTSGVHTFPAVLQSSGLYSLSSVVTVPSSSLGTQTYICNVNHKPSNTKVDKKVEPKSCDKTHTCPPCPAPELLGDDSVFLFPPKPKDTLMISRTPEVTCVVVDVSDEDGEVKFNWYVDGVEVHNAKTKPREEQYNSTYRVVSVLTVLHQDWLNGKEYKCKVSNAALPRPIEKTISKAKGQPREPQVYTLPPSRDELTKNQVSLTCLVKGFYPSDIAVEWESNGQPENNYKTTPPVLDSDGSFFLYSKLTVDKSRWQQGNVFSCSVMHEALHNHYTQESLSLSP
light: not shown
notes: Anti-human IL-6 receptor IgG1
Molecule B2 showed a Kd in assay [3] of 41000 nM.

B3: IL6R-BP206/IL6R-L (antibody, human IgG1, kappa)
heavy: QVQLQESGPGLVKPSETLSLTCAVSGHSISHDHAWSWVRQPPGEGLEWIGFISYSGITNYNPSLQGRVTISRDNSKNTLYLQMNSLRAEDTAVYYCARSLARTTAMDYWGEGTLVTVSSASTKGPSVFPLAPSSKSTSGGTAALGCLVKDYFPEPVTVSWNSGALTSGVHTFPAVLQSSGLYSLSSVVTVPSSSLGTQTYICNVNHKPSNTKVDKKVEPKSCDKTHTCPPCPAPDLLGGDSVFLFPPKPKDTLMISRTPEVTCVVVDVSHEDGEVKFNWYVDGVEVHNAKTKPREEQYNSTYRVVSVLTVLHQDWLNGKEYKCKVSNKALPRPIEKTISKAKGQPREPQVYTLPPSRDELTKNQVSLTCLVKGFYPSDIAVEWESNGQPENNYKTTPPVLDSDGSFFLYSKLTVDKSRWQQGNVFSCSVMHEALHNHYTQESLSLSP
light: not shown
notes: E233D/P238D/P271G/A330R (EU) in IL6R-B3; copies: 2 + 2
In assay [2], B3 had a Kd of 200 nM.

B4: IL6R-BP151/IL6R-L (antibody, human IgG1, kappa)
heavy: QVQLQESGPGLVKPSETLSLTCAVSGHSISHDHAWSWVRQPPGEGLEWIGFISYSGITNYNPSLQGRVTISRDNSKNTLYLQMNSLRAEDTAVYYCARSLARTTAMDYWGEGTLVTVSSASTKGPSVFPLAPSSKSTSGGTAALGCLVKDYFPEPVTVSWNSGALTSGVHTFPAVLQSSGLYSLSSVVTVPSSSLGTQTYICNVNHKPSNTKVDKKVEPKSCDKTHTCPPCPAPDYLGDDSVFLFPPKPKDTLMISRTPEVTCVVVDVSHEDPEVKFNWYVDGVEVHNAKTKPREEQYNSTYRVVSVLTVLHQDWLNGKEYKCKVSNAALPRPIEKTISKAKGQPREPQVYTLPPSRDELTKNQVSLTCLVKGFYPSDIAVEWESNGQPENNYKTTPPVLDSDGSFFLYSKLTVDKSRWQQGNVFSCSVMHEALHNHYTQESLSLSP
light: not shown
notes: E233D/L234Y/G237D/P238D/K326A/A330R (EU) in IL6R-B3; copies: 2 + 2
Take B4: the Kd in assay [2] amounted to 40 nM.

B5: IL6R-BP200/IL6R-L (antibody, human IgG1, kappa)
heavy: QVQLQESGPGLVKPSETLSLTCAVSGHSISHDHAWSWVRQPPGEGLEWIGFISYSGITNYNPSLQGRVTISRDNSKNTLYLQMNSLRAEDTAVYYCARSLARTTAMDYWGEGTLVTVSSASTKGPSVFPLAPSSKSTSGGTAALGCLVKDYFPEPVTVSWNSGALTSGVHTFPAVLQSSGLYSLSSVVTVPSSSLGTQTYICNVNHKPSNTKVDKKVEPKSCDKTHTCPPCPAPDYLGDDSVFLFPPKPKDTLMISRTPEVTCVVVDVSHEDGEVKFNWYVDGVEVHNAKTKPREEQYNSTYRVVSVLTVLHQDWLNGKEYKCKVSNDALPRPIEKTISKAKGQPREPQVYTLPPSRDELTKNQVSLTCLVKGFYPSDIAVEWESNGQPENNYKTTPPVLDSDGSFFLYSKLTVDKSRWQQGNVFSCSVMHEALHNHYTQESLSLSP
light: not shown
notes: E233D/L234Y/G237D/P238D/P271G/K326D/A330R (EU) in IL6R-B3; copies: 2 + 2
For the molecule B5, the Kd in assay [2] turned out to be 34 nM.

B6: IL6R-BP084/IL6R-L (antibody, human IgG1, kappa)
heavy: QVQLQESGPGLVKPSETLSLTCAVSGHSISHDHAWSWVRQPPGEGLEWIGFISYSGITNYNPSLQGRVTISRDNSKNTLYLQMNSLRAEDTAVYYCARSLARTTAMDYWGEGTLVTVSSASTKGPSVFPLAPSSKSTSGGTAALGCLVKDYFPEPVTVSWNSGALTSGVHTFPAVLQSSGLYSLSSVVTVPSSSLGTQTYICNVNHKPSNTKVDKKVEPKSCDKTHTCPPCPAPELLGGDSVFLFPPKPKDTLMISRTPEVTCVVVDVSHEDPEVKFNWYVDGVEVHNAKTKPREEQYNSTYRVVSVLTVLHQDWLNGKEYKCKMSNKALPKPIEKTISKAKGQPREPQVYTLPPSRDELTKNQVSLTCLVKGFYPSDIAVEWESNGQPENNYKTTPPVLDSDGSFFLYSKLTVDKSRWQQGNVFSCSVMHEALHNHYTQESLSLSP
light: not shown
notes: P238D/V323M/A330K (EU) in IL6R-B3; copies: 2 + 2
For B6, the Kd was 7 nM in assay [1] and 500 nM in assay [2].

B7: IL6R-BP130/IL6R-L (antibody, human IgG1, kappa)
heavy: QVQLQESGPGLVKPSETLSLTCAVSGHSISHDHAWSWVRQPPGEGLEWIGFISYSGITNYNPSLQGRVTISRDNSKNTLYLQMNSLRAEDTAVYYCARSLARTTAMDYWGEGTLVTVSSASTKGPSVFPLAPSSKSTSGGTAALGCLVKDYFPEPVTVSWNSGALTSGVHTFPAVLQSSGLYSLSSVVTVPSSSLGTQTYICNVNHKPSNTKVDKKVEPKSCDKTHTCPPCPAPDLLGGDSVFLFPPKPKDTLMISRTPEVTCVVVDVSHEDPEVKFNWYVDGVEVHNAKTKPREEQYNSTYRVVSVLTVLHQDWLNGKEYKCKMSNKALPKPIEKTISKAKGQPREPQVYTLPPSRDELTKNQVSLTCLVKGFYPSDIAVEWESNGQPENNYKTTPPVLDSDGSFFLYSKLTVDKSRWQQGNVFSCSVMHEALHNHYTQESLSLSP
light: not shown
notes: E233D/P238D/V323M/A330K (EU) in IL6R-B3; copies: 2 + 2
Take B7: the Kd in assay [2] worked out at 300 nM.

B8: IL6R-BP208/IL6R-L (antibody, human IgG1, kappa)
heavy: QVQLQESGPGLVKPSETLSLTCAVSGHSISHDHAWSWVRQPPGEGLEWIGFISYSGITNYNPSLQGRVTISRDNSKNTLYLQMNSLRAEDTAVYYCARSLARTTAMDYWGEGTLVTVSSASTKGPSVFPLAPSSKSTSGGTAALGCLVKDYFPEPVTVSWNSGALTSGVHTFPAVLQSSGLYSLSSVVTVPSSSLGTQTYICNVNHKPSNTKVDKKVEPKSCDKTHTCPPCPAPDLLGDDSVFLFPPKPKDTLMISRTPEVTCVVVDVSDEDGEVKFNWYVDGVEVHNAKTKPREEQYNSTYRVVSVLTVLHQDWLNGKEYKCKVSNKALPRPIEKTISKAKGQPREPQVYTLPPSRDELTKNQVSLTCLVKGFYPSDIAVEWESNGQPENNYKTTPPVLDSDGSFFLYSKLTVDKSRWQQGNVFSCSVMHEALHNHYTQESLSLSP
light: not shown
notes: Anti-human IL-6 receptor IgG1
In assay [3], B8 gave a Kd of 53000 nM.

B9: IL6R-BP201/IL6R-L (antibody, human IgG1, kappa)
heavy: QVQLQESGPGLVKPSETLSLTCAVSGHSISHDHAWSWVRQPPGEGLEWIGFISYSGITNYNPSLQGRVTISRDNSKNTLYLQMNSLRAEDTAVYYCARSLARTTAMDYWGEGTLVTVSSASTKGPSVFPLAPSSKSTSGGTAALGCLVKDYFPEPVTVSWNSGALTSGVHTFPAVLQSSGLYSLSSVVTVPSSSLGTQTYICNVNHKPSNTKVDKKVEPKSCDKTHTCPPCPAPDLLGDDSVFLFPPKPKDTLMISRTPEVTCVVVDVSHEDGEVKFNWYVDGVEVHNAKTKPREEQYNSTYRVVSVLTVLHQDWLNGKEYKCKVSNKALPRPIEKTISKAKGQPREPQVYTLPPSRDELTKNQVSLTCLVKGFYPSDIAVEWESNGQPENNYKTTPPVLDSDGSFFLYSKLTVDKSRWQQGNVFSCSVMHEALHNHYTQESLSLSP
light: not shown
notes: E233D/G237D/P238D/P271G/A330R (EU) in IL6R-B3; copies: 2 + 2
Consider B9, for which the Kd was 40 nM in assay [2] and 840 nM in assay [4].

B10: IL6R-BP211/IL6R-L (antibody, human IgG1, kappa)
heavy: QVQLQESGPGLVKPSETLSLTCAVSGHSISHDHAWSWVRQPPGEGLEWIGFISYSGITNYNPSLQGRVTISRDNSKNTLYLQMNSLRAEDTAVYYCARSLARTTAMDYWGEGTLVTVSSASTKGPSVFPLAPSSKSTSGGTAALGCLVKDYFPEPVTVSWNSGALTSGVHTFPAVLQSSGLYSLSSVVTVPSSSLGTQTYICNVNHKPSNTKVDKKVEPKSCDKTHTCPPCPAPDLLGGDSVFLFPPKPKDTLMISRTPEVTCVVVDVSDEDGEVKFNWYVDGVEVHNAKTKPREEQYNSTYRVVSVLTVLHQDWLNGKEYKCKVSNAALPRPIEKTISKAKGQPREPQVYTLPPSRDELTKNQVSLTCLVKGFYPSDIAVEWESNGQPENNYKTTPPVLDSDGSFFLYSKLTVDKSRWQQGNVFSCSVMHEALHNHYTQESLSLSP
light: not shown
notes: Anti-human IL-6 receptor IgG1
For the molecule B10, in assay [3], binding was characterised by a dissociation constant (Kd) of 73000 nM.
